Changes are numbered by the printed parent chain.
B1: WT G-CSF, purified from insect cells, tag cleaved (ligand)
chain: TPLGPASSLPQSFLLKCLEQVRKIQGDGAALQEKLCATYKLCHPEELVLLGHSLGIPWAPLSSCPSQALQLAGCLSQLHSGLFLYQGLLQALEGISPELGPTLDTLQLDVADFATTIWQQMEELGMAPALQPTQGAMPAFASAFQRRAGGVLVASHLQSFLEVSYRVLRHLAQAAAENLYFQ
notes: protein of the SPR; also called G-CSFWT; wild type G-CSF
B2: design 130 G-CSFE, tag cleaved (ligand)
chain: B1 chain with E46R, L108K, D112R
notes: also called design 137 G-CSFE; G-CSF137
B3: design 34 G-CSFE, tag cleaved (ligand)
chain: B1 chain with L108K, D112R, E122R, E123R
notes: also called design 34 G-CSFE mutant
B4: design 30 G-CSFE, tag cleaved (ligand)
chain: B1 chain with L108K, D112R
notes: also called design 30 G-CSFE mutant
B5: design 35 G-CSFE, tag cleaved (ligand)
chain: B1 chain with T115K, E122R, E123R
notes: also called design 35 G-CSFE mutant
B6: design 307 G-CSFE, tag cleaved (ligand)
chain: B1 chain with S12E, K16D, E19K, E46R
B7: WT G-CSFR(Ig-CRH), purified, tag cleaved (receptor)
chain: GSMGCGHISVSAPIVHLGDPITASCIIKQNCSHLDPEPQILWRLGAELQPGGRQQRLSDGTQESIITLPHLNHTQAFLSCSLNWGNSLQILDQVELRAGYPPAIPHNLSCLMNLTTSSLICQWEPGPETHLPTSFTLKSFKSRGNCQTQGDSILDCVPKDGQSHCSIPRKHLLLYQNMGIWVQAENALGTSMSPQLCLDPMDVVKLEPPMLRTMDPSPEAAPPQAGCLQLSWEPWQPGLHINQKCELRHKPQRGEASWALVGPLPLEALQYELCGLLPATAYTLQIRCIRWPLPGHWSDWSPSLELRTTE
notes: also called G-CSFRWT; wild type G-CSFR(Ig-CRH)

Legend:
[1] = molecular target: T1, design 30 G-CSFR(Ig-CRH)E, tag cleaved (human, UniProt Q99062 26-331); assay: SPR, WT G-CSF against design 30 G-CSFR(Ig-CRH)E, single-cycle kinetics
T1 construct: also called Design 30 G-CSFR(Ig-CRH)E mutant
T1 chain: B7 chain with R169D

[2] = molecular target: T2, design 35 G-CSFR(Ig-CRH)E, tag cleaved (human, UniProt Q99062 26-331); assay: SPR, WT G-CSF against design 35 G-CSFR(Ig-CRH)E, single-cycle kinetics
T2 chain: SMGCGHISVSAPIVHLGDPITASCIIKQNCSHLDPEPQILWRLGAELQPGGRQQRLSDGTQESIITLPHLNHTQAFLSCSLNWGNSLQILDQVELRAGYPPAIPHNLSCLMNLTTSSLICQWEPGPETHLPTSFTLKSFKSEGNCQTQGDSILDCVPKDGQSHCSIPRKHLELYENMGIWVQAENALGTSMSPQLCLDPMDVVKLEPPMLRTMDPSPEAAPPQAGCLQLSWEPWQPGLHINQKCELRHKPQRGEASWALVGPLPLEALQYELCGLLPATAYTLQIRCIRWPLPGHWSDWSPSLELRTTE

[3] = molecular target: T3, design 34 G-CSFR(Ig-CRH)E, tag cleaved (human, UniProt Q99062 26-331); assay: SPR, WT G-CSF against design 34 G-CSFR(Ig-CRH)E; steady state derived affinity constant
T3 construct: also called Design 34 G-CSFR(Ig-CRH)E mutant
T3 chain: T2 chain with R168D, E172L, E175Q

[4] = molecular target: T4, design 130 G-CSFR(Ig-CRH)E, tag cleaved (human, UniProt Q99062 26-331); assay: SPR, G-CSFRE amine-coupled, G-CSFE injected, single-cycle kinetics
T4 construct: also called 130 ECD (Ig-CRH)
T4 chain: T2 chain with R42E, E142R, R168D, E172L, E175Q
Protocol: (§1) The SPR binding assays were carried out on a Biacore T200 instrument (GE Healthcare, Mississauga, ON, Canada) with PBS-T (PBS+0.05% (v/v) Tween 20) running buffer at a temperature of 25° C. CM5 Series S sensor chip, Biacore amine coupling kit (NHS, EDC and 1 M ethanolamine), and 10 mM sodium acetate buffers were all purchased from GE Healthcare. PBS running buffer with 0.05% Tween20 (PBS-T) was purchased from Teknova Inc. (Hollister, CA). Designs were assessed in three different immobilization orientations.
(§2) To determine binding affinity of G-CSFE to G-CSFRE the G-CSFRE mutant was captured by standard amine coupling as described by the manufacturer (GE LifeSciences). Briefly, immediately after EDC/NHS activation, a 5 μg/mL solution of G-CSFRE in 10 mM NaOAc, pH 5.0, was injected at a flow rate of 5 μL/min until a receptor density of ˜700-900 RU was reached. The remaining active groups were quenched by a 420 s injection of 1 M ethanolamine hydrochloride-NaOH pH 8.5 at 10 μL/min. Using single-cycle kinetics, six concentrations of a two-fold dilution series of the corresponding G-CSFE mutant starting at 200 nM with a blank buffer control were sequentially injected at 25 μL/min for 300 s with a 1800 s dissociation phase, resulting in a set of sensorgrams with a buffer blank reference. The same sample titration was also performed on a reference cell with no variants captured. The chip was regenerated to prepare for the next injection cycle by one pulse of 10 mM glycine/HCl, pH 2.0, for 30 s at 30 μL/min.
(§3) Double-referenced sensorgrams from duplicate or triplicate repeat injections were analyzed using Biacore™ T200 Evaluation Software v3.0 and fit to the 1:1 Langmuir binding model.

[5] = molecular target: T5, design 134 G-CSFR(Ig-CRH)E, tag cleaved (human, UniProt Q99062 26-331); assay: as above
T5 construct: also called design 137 G-CSFR(Ig-CRH)E
T5 chain: T2 chain with R42E, R168D, E172L, E175Q
Protocol: as §1, §2, §3

[6] = molecular target: B7; assay: SPR, single-cycle kinetics, G-CSFR(Ig-CRH) on the chip, G-CSF injected
Protocol: as §1
(§4) To assess binding affinity of G-CSFE to G-CSFRWT, recombinant G-CSFRWT purified as described in Example 5 was captured as described above in this Example. Using single-cycle kinetics, six concentrations of a two-fold dilution series of each G-CSFE mutant starting at […] with a blank buffer control were sequentially injected as described above. The same sample titration was also performed on a reference cell with no variants captured. The G-CSFRWT surface was regenerated as described above.
as §3

[7] = molecular target: T3, design 34 G-CSFR(Ig-CRH)E, tag cleaved; assay: SPR, G-CSFRE amine-coupled, G-CSFE injected, single-cycle kinetics
Protocol: as §1, §2, §3

[8] = molecular target: B7; assay: SPR, WT G-CSFR(Ig-CRH) amine-coupled, G-CSFE injected, single-cycle kinetics
Protocol: as §1, §4

[9] = molecular target: T1, design 30 G-CSFR(Ig-CRH)E, tag cleaved; assay: SPR, G-CSFRE amine-coupled, G-CSFE injected, single-cycle kinetics
Protocol: as §1, §2, §3

[10] = molecular target: T2, design 35 G-CSFR(Ig-CRH)E, tag cleaved; assay: as above
Protocol: as §1, §2, §3

[11] = molecular target: B7; assay: SPR (Biacore T200), WT receptor amine-coupled, cytokine injected
Protocol: as §1, §4, §3

[12] = molecular target: T6, design 307 G-CSFR(Ig-CRH)E, tag cleaved (human, UniProt Q99062 26-331); assay: SPR, G-CSFRE amine-coupled, G-CSFE injected; steady state derived affinity constant
T6 chain: T2 chain with R42E, E142R, E172L, E175Q, D198K, D201K, R289E
Protocol: as §2, §3
(§5) Kinetic-derived affinity constants (KD) where obtained by fitting the association and dissociation phases of the curves. The KD of WT G-CSF for WT G-CSFR(Ig-CRH) ranged between 1.8-2.5E-9. For the cases in which the kinetic parameters could not be fit an attempt was made to derive a steady state affinity constant. In those cases, the KD fold change was calculated from the steady state derived KD for the WT G-CSF:WT G-CSFR(Ig-CRH) pair and is indicated in Table 7.

[13] = molecular target: B1; assay: SPR (Biacore T200, 25 °C), single-cycle kinetics, 1:1 Langmuir fit; lower end of the range found for the WT:WT pair
Protocol: as §4, §3, §5

In the case of B1, the “KD fold change (against WT:WT)” value [1] is reported as 774 fold, the “KD fold change (against WT:WT)” value [2] is reported as 19 fold and the “KD fold change (against WT:WT)” value [3] is reported as 4260 fold.

For B2, the “KD fold change (against WT:WT)” value [4] was 0.9 fold, the “KD fold change (against WT:WT)” value [5] was 0.3 fold and the binding result [6] was “no binding”.

With B3 the “KD fold change (against WT:WT)” value [7] was 5 fold and the “KD fold change (against WT:WT)” value [8] was 33 fold.

With B4 the “KD fold change (against WT:WT)” value [9] was 11 fold and the “KD fold change (against WT:WT)” value [8] was 20 fold.

With B5 the “KD fold change (against WT:WT)” value [10] was 3.3 fold and the “KD fold change (against WT:WT)” value [8] was 5 fold.

In the case of B6, the binding result [11] is reported as “no binding” and the “KD fold change (against WT:WT)” value [12] is reported as 0.6 fold.

Binder B7 has a Kd [13] of 1.8 to 2.5 nM.

Source: patent US20240254182A1 (PROVINCIAL HEALTH SERVICES AUTHORITY, published 2024)
